Patent US9200265B2, “Anti-cocaine compositions and treatment” (priority 2006, dated 2015)
Where two headings read alike, the source gives them in different places.

What was measured:
[1] = tested on: cocaine-induced lethality; test: Cocaine toxicity in mice, incl. repeated CocE doses; assay type: in vivo, mouse
Text: The animal toxicity model was similar to that described previously, except as described. Male NIH Swiss mice were used. For tail intravenous injection, mice are placed in a small restraint chamber that exposes their tail. A heat lamp with an infrared, 250 w bulb is placed about 4 inches from the tail, and left for a couple of minutes. The tail is then cleansed with an alcohol wipe and a 30 G ½ precision glide needle (Fisher Scientific), is inserted into one of the side veins for infusion. To verify whether the needle is in the vein a small amount of drug is infused, if in the correct location the solution should infuse easily without any indication of an incorrect subcutaneous location, which appears white at the site of injection. For intravenous catheterization, Male NIH Swiss mice are anesthetized with ketamine 100 mg/kg and xylazine 10 mg/kg co-administered i.p. When mice are no longer responsive to paw pressure, the neck is shaved and prepped by alternating Betadine and alcohol wipes. Under clean conditions, a right transverse neck incision is made and the external jugular vein is isolated. A catheter is inserted into the vein with the aid of a dissecting microscope to the level of the right atrium, and is secured in the vein with nylon, 4-0 sutures and tissue adhesive, 3M Vetbond (3M Animal Care Products, St. Paul, Minn.). The catheters are a short length of Tygon tubing with an inner diameter of 0.010 in. and an outer diameter of 0.030 in. (Small Parts, Inc., Miami Lakes, Fla.). A small incision is made in the middle of the animal's back, and a trocar inserted subcutaneously to exit at the ventral incision site. The catheter is then pulled through the trocar and brought out the animal's back where it is held in place with nylon suture material and the tissue adhesive. A short piece of steel wire with a diameter of 0.011 in. (Small Parts, Inc., Miami Lakes, Fla.) is inserted into the end of the catheter. The ventral incision is closed with 4-0 Vicryl suture material and the mouse placed under a heat lamp for recovery. Approximately an hour later, the mouse is returned to its home cage.
Mice that survived a first administration of the combination of 0.32 mg CocE and 320 mg/kg cocaine were given this combination again, 14 days following the initial administration.

[2] = humans; cited from earlier work
[3] = tested on: cocaine-induced lethality; test: Rodent model of acute cocaine toxicity (convulsions and lethality) in rats
[4] = cited from earlier work
[5] = Cocaine blood levels and lethal concentrations in the rat (literature)
[6] = tested on: cocaine-induced lethality; conditions: rats; cited from earlier work
[7] = against (-) cocaine; cited from earlier work
[8] = Cocaine spectrophotometric assay (240 nm), Michaelis-Menten kinetics
[9] = Low-UV CD spectra melt with CCA deconvolution; assay type: physicochemical
Experimental: Low-UV CD spectra data were obtained using an Aviv Spectropolarimeter Mode 400, with the help of Norma Greenfield, UMDNJ, using a 5-cell holder and 0.2 mg/ml protein concentrations. Raw data values obtained were blanked on control PBS, smoothed, and deconvoluted using the CCA algorithm as described by A. Perczel, K. Park, and G. D. Fasman, [Analysis of the circular dichroism spectrum of proteins using the convex constraint algorithm: a practical guide. Analytical Biochemistry 203, 83-93 (1992).] This algorithm finds the minimum number of curves needed to reconstruct a data set, and expresses the percentage each curve contributes to the data set as a function of temperature.
Below is presented a low UV CCA denconvolution analysis of CocE WT and 4 mutants, obtained in a single CD spectra melt using a 5-cell holder. The experiment was performed over the period of 8 hours, from 0-80° C.
Temperature dependent melting was observed between the wavelengths tested (200-250 nm), and the smoothed spectra for each mutant are shown in FIG. 29. […] Dose response analysis was used to approximate the temperature at which the initial spectra melts (1), the formation and melt of the intermediate state (2), and the accumulation of the fully melted protein (3).

[10] = Melting temperature by circular dichroism (near-UV); assay type: physicochemical
Experimental: (§1) Plasmids containing the mutations were transformed into E. coli BL21 cells and IPTG-induced enzyme was purified on Ni-Agarose. Expressed proteins were then tested for enzymatic activity and for thermostability at 37° C. Enzyme activity was measured using the spectrophotometric assay as described in Example 1. Thermostability was also tested via the spectrophotometric assay by pre-incubation of both wild-type and mutants at 37° C. for various times. Additionally, the nature of the thermo-instability of both the wild-type and T172R mutant was analyzed by polyacrylamide gel electrophoresis under denaturing and non-denaturing conditions. Briefly, mutant and wild-type enzyme at 0.1 mg/ml were incubated at 37° C. for various time-points, cooled to 4° C., mixed with SDS-loading dye containing-mercaptoethanol and run on 10% SDS-PAGE gels (denaturing conditions) or run on native 10% polyacrylamide gels (non-denaturing conditions) at 4° C. Gels were fixed with 10% methanol, 7% acetic acid for 30 minutes, and then stained with Sypro-Ruby protein gel stain (Molecular Probes, Invitrogen) for 3 hours. Protein staining was visualized under UV-light using an AlphaImager™ 3400 (Alpha Innotech). Finally, the exact melting temperature of both the wild-type and T172R mutant were determined by circular dichroism using a JASCO-810 spectropolarimeter driven by a JASCO V500/FP-750 analysis program for Windows. The CD spectra were measured in millidegrees and normalized against PBS buffer.

[11] = Non-denaturing polyacrylamide gel electrophoresis after incubation at 37° C. (aggregation); assay type: physicochemical; conditions: non-denaturing gels, 0.1 mg/ml
Experimental: as §1, with “Protein staining was visualized under UV-light using an AlphaImager™ 3400 (Alpha Innotech).” left out

[12] = CocE activity recovered after pegylation (initial rates of cocaine hydrolysis); conditions: m-PEG 5.5 KDa, preliminary

COC(=O)[C@H]1[C@@H](OC(=O)c2ccccc2)C[C@@H]2CC[C@H]1N2C [cocaine]
time to death ([1]; 180 mg/kg i.p. cocaine alone, mice): about 3 min
lethal concentrations [2]: 20 to 200 µM
animals in which death was observed ([3]; 100 mg/kg cocaine, rats): 100%
time to death after administration ([3]; 100 mg/kg cocaine, rats): less than 15 minutes
time of peak plasma levels ([4]; after an intraperitoneal injection): about 13 minutes
lethal blood concentrations ([4]; rat): 50 to 128 µM
estimated peak cocaine blood concentration ([5]; 100 mg/kg cocaine i.p.): 35 µM
estimated peak cocaine blood concentration ([5]; 320 mg/kg cocaine i.p.): 113 µM

B1: BChE: serum butyrylcholinesterase (protein, UniProt P06276 29-602, looked up)
Cholinesterase: EDDIIIATKNGKVRGMNLTVFGGTVTAFLGIPYAQPPLGRLRFKKPQSLTKWSDIWNATKYANSCCQNIDQSFPGFHGSEMWNPNTDLSEDCLYLNVWIPAPKPKNATVLIWIYGGGFQTGTSSLHVYDGKFLARVERVIVVSMNYRVGALGFLALPGNPEAPGNMGLFDQQLALQWVQKNIAAFGGNPKSVTLFGESAGAASVSLHLLSPGSHSLFTRAILQSGSFNAPWAVTSLYEARNRTLNLAKLTGCSRENETEIIKCLRNKDPQEILLNEAFVVPYGTPLSVNFGPTVDGDFLTDMPDILLELGQFKKTQILVGVNKDEGTAFLVYGAPGFSKDNNSIITRKEFQEGLKIFFPGVSEFGKESILFHYTDWVDDQRPENYREALGDVVGDYNFICPALEFTKKFSEWGNNAFFYYFEHRSSKLPWPEWMGVMHGYEIEFVFGLPLERRDNYTKAEEILSRSIVKRWANFAKYGNPNETQNNSTSWPVFKSTEQKYLTLNTESTRIMTKLRAQQCRFWTSFFPKVLEMTGNIDEAEWEWKAGFHRWNNYMMDWKNQFNDYTSKKESCVGL
treatment required for protection against an LD50 dose of cocaine [6]: 10 mg/kg
change in the dose of cocaine necessary to kill the mice ([1]; 1 mg): slight increase
time to death ([1]; 1 mg): not modified
Kcat [7]: 0.0683 s⁻¹
Km [7]: 4.5 µM
protection against cocaine-induced lethality ([3]; 13 mg (10-times molar equivalent dose), one minute before 180 mg/kg cocaine): no protection

B2: T172R: mutant CocE polypeptide, SEQ ID NO: 25 (protein)
chain: MVDGNYSVASNVMVPMRDGVRLAVDLYRPDADGPVPVLLVRNPYDKFDVFAWSTQSTNWLEFVRDGYAVVIQDTRGLFASEGEFVPHVDDEADAEDTLSWILEQAWCDGNVGMFGVSYLGVTQWQAAVSGVGGLKAIAPSMASADLYRAPWYGPGGALSVEALLGWSALIGRGLITSRSDARPEDAADFVQLAAILNDVAGAASVTPLAEQPLLGRLIPWVIDQVVDHPDNDESWQSISLFERLGGLATPALITAGWYDGFVGESLRTFVAVKDNADARLVVGPWSHSNLTGRNADRKFGIAATYPIQEATTMHKAFFDRHLRGETDALAGVPKVRLFVMGIDEWRDETDWPLPDTAYTPFYLGGSGAANTSTGGGTLSTSISGTESADTYLYDPADPVPSLGGTLLFHNGDNGPADQRPIHDRDDVLCYSTEVLTDPVEVTGTVSARLFVSSSAVDTDFTAKLVDVFPDGRAIALCDGIVRMRYRETLVNPTLIEAGEIYEVAIDMLATSNVFLPGHRIMVQVSSSNFPKYDRNSNTGGVIAREQLEEMCTAVNRIHRGPEHPSHIVLPIIKR
modifications: Mutant CocE polypeptide
duration of prophylactic effects ([3]; 0.32 mg given 1, 10, 30, 60 minutes before 320 mg/kg cocaine): longer lasting than the wild-type CocE
lethality ([3]; 0.32 mg i.v. one minute after 1 g/kg cocaine i.p., rats): about 70%
Km ([8]; 40 min @ 37° C.): 78.8 µM
Km ([8]; no preincubation): 88.2 µM
#3 formation ([9]; accumulation of the fully melted protein): 56.85 °C
#2 formation ([9]; formation of the intermediate state): 38.11 °C
#1 melt ([9]; initial spectra melts, 0.2 mg/ml): 39.22 °C
#2 melt ([9]; melt of the intermediate state): 54.56 °C
increased melting temperature compared to the wild-type CocE [10]: 5 degrees
detectable denaturation beginning ([10]; near-UV CD): approximately 28 °C
melting temperature ([10]; near-UV CD (260-320 nm), curve-fitting): 41.43 °C
half-life at 37° C. relative to the wildtype [11]: ~8 ×

B3: PEG-CocE: wild-type CocE linked with monomethoxy-PEG polymers (MW 5.5 KDa), mixture with 1 to 4 PEG chains (conjugate, UniProt Q9L9D7 1-574, looked up)
Cocaine esterase: MVDGNYSVASNVMVPMRDGVRLAVDLYRPDADGPVPVLLVRNPYDKFDVFAWSTQSTNWLEFVRDGYAVVIQDTRGLFASEGEFVPHVDDEADAEDTLSWILEQAWCDGNVGMFGVSYLGVTQWQAAVSGVGGLKAIAPSMASADLYRAPWYGPGGALSVEALLGWSALIGTGLITSRSDARPEDAADFVQLAAILNDVAGAASVTPLAEQPLLGRLIPWVIDQVVDHPDNDESWQSISLFERLGGLATPALITAGWYDGFVGESLRTFVAVKDNADARLVVGPWSHSNLTGRNADRKFGIAATYPIQEATTMHKAFFDRHLRGETDALAGVPKVRLFVMGIDEWRDETDWPLPDTAYTPFYLGGSGAANTSTGGGTLSTSISGTESADTYLYDPADPVPSLGGTLLFHNGDNGPADQRPIHDRDDVLCYSTEVLTDPVEVTGTVSARLFVSSSAVDTDFTAKLVDVFPDGRAIALCDGIVRMRYRETLVNPTLIEAGEIYEVAIDMLATSNVFLPGHRIMVQVSSSNFPKYDRNSNTGGVIAREQLEEMCTAVNRIHRGPEHPSHIVLPIIKR
modifications: monomethoxy-PEG 5.5 kDa, 1-4 chains
initial CocE activity recovered after the pegylation reaction [12]: > 70%
